Data taken from the DeepSol protein solubility set.

Assay: soluble on expression in E. coli; label from the status in PepcDB or PDB records
With “MARMLTAADVEAAGGKLILAAGDRLTPLARDRARELGIVVEAAGLSSGVSTPSASPTSTSAPVVKSPLAAPAPAPVPAARPATPVAPPAATGSRPLALPPSGALYRRNALGPSAQSSRAVDGRPKAGVVGAGHVGAMTALRLAESDLFSEVALVDVVPGLAAGLALDMWHGAGLYGFSTRLSGSDDLVALAGAEYIVITAGKPRQPGMSRTDLTVVNAEIMTSVCRGIRTHAPNSTLVIVSNPLEEMTHLAAQQTGFPEERVLGMAGVLDSARFCALVGLTGKARPQEVRAVALGSHGPEMVIPLSQAFVGDRPIESMFDAETLKALVERARESGGEVVKLLQKGSAYFSPAESAVTMVRAMVRDSGEVIAACVRSRGAYGAVDTRVGLPVRLHRRGLKEIVPLTLRPAEQQALQDAAARIAARIAELPAPC” the “soluble on expression in E. coli” value was “not soluble”.
With “MARNPRTTVRRILNSAPRSLLIQSVTIVALDPTDNNHGSHQPGSNGPSNSSTQADNFETETTADEERQKEDGVEDELEDEETTGFIDEDGEIRYPVDEVGNYEIDQEAETDESFYLDTQRDSSLCDERSQLCRSLSDQNLRTTFFLITTTNSKAAILRYLHFHNVSQDSILRKLLLNDSHLTLVEVCNLCAQNIELCKCEDMQEKCQLIFGDLKKWLEVILNSFANIMMKTKTTILEGYNSSSPINKGIFKKKLLSEMADNEMWMHFESSFDGIKVHKNGNQNIWPYSLLNLDLEDVHRASPQALILAALFIGFKNPTTKIHDRLTQWILLQMDEHVFFSEGVAWKADLTCANHDDPARRIVYNQCGLRSSGSCNFCLNQETECKINDEYTTLRENLTGSCPSTMNDGLRQRNQHSHFHKHVLYMHLCPVTSNARMLPKRVHFSALFSKGKWNLFPSKSVDFSSTPSLPSRFRSLSGKASQCTGSEKALSIVVAAAFSGELGGVSSAIILSIHGLYRLCIEPQSITDETLHLKIEQISKSIEVLIVKRAPEMLNGIKVHQVLYHLARMTELYGSLFPLSTQWFEYFYHTIQRTLVPEIYNGLGMSIMRKMSALQEIKTEAAFRLHTNHQFRTEANLKMCYELGLLRRLKRISVVPTPPQYQQFCETGDVFLNVVYHDGIRYSNYCNKKTDDSNVTFIEYARVRFAKIIGMLLKENNTDLRFILKKYCNTNDHLIDISNKLYEEDVPQMHIQNWVDSVSKSSFGGRVTLTNTVVVVSADSIVGHAVVVKRNNNCVALPFSRRISLS” the “soluble on expression in E. coli” value was “not soluble”.
With “MARPETEPKTELAKRFREVRRILGFTERKQFAEHLGVTAGSIGTYETGVSEPTASALSKYQEICGVSLDWLVTGNGEMFTDMAKAKAAGFKPQAIPAGLMKRLGHLAYTTYHDAKITLPPEDVAELAAGLYGKLQELIHNINDMEEVEATLPLLKLHLKRQIEVEKAHRAIPGNTANSSD” the “soluble on expression in E. coli” value was “not soluble”.
With “MARRISEPAREIDIIHETDVLVVGSGPGGLPAALAAARAGAEVTLVERFGCFGGNLTVVGVEGMHWYRHEQTIESNGIAREFEEKAKEMGAAVPESQSLSHEIDSEGFKLVADRMVLDEPNIRPMLHRFFVAPLMEGDTIIGIVTESKSGREAILARRVIDATGDADVVTRAGAPVYKTPAEQMMAASVMFHLAGVDKQRFMDGIKADPQTYRDWGGGGEWNIETSGKEDDMFSPFLKKPFQQAIRDGLIPPHLNTIAGTWGAVHDTGELTYMNLIHLDGCDGTDPDSLTTYEIEGRRQTMLAIEALRRYTPGCENIRLRNFGMSIGIRDTRKVDCLYNMTETDVREQGRFEDSIGIFPEFIDGYGILILPTTGRYFQMPYRNLLPRGVKNLLVAGRITGGDRISHAATRNMACCAVTGQGAGIAAALSVKSNRPLDEIDPLLIQKELERQGGRHHLEHHHHHH” the “soluble on expression in E. coli” value was “not soluble”.
For “MARRNYQVERNKLEEKDPTWLMQKGQIQPLVSSLVVLNVEGERILARYTAKELFPTFDVEKKFEADLLKKSQTIPDLEENTGVFEHGQHIVVCRASEDLLFFVTSRIYENEVILSEVLTCWVDSLVKVLKNLPLNELNLLQHYEVLLLLVDELVDQEGVIMETDANELSSRTEFAMYSTDPRDLIPELTEQGFSHALQTAKQHLARTILK”, the “soluble on expression in E. coli” value was “not soluble”.
For “MARTDIRPIVKLRSTAGTGYTYTTRKNRRNDPDRLILRKYDPILRRHVDFREER”, the “soluble on expression in E. coli” value was “soluble”.
In the case of “MARWERIVDGVKSIALMRKKIITRGKRIALFVDGPNILRKELGIHLEDIVEALSKLGNIRVAKVILNQYAPQSLIEAVSNQGFEPVIVAGEIGVKMAVEAMREVYNPNIDMIALATRNTEFVPIILKAKEKGKETAIIGVEHGLSSALKHAADYVIILKPRGEKIEERHHEDSEERREGGRGA”, the “soluble on expression in E. coli” value is reported as “not soluble”.
For “MASDMPLVQLPQRGERINVPLVQSRSEDQRLVTSARQTDKIDADDLVALANQLNSARQLVKGRACDRLKQIADQMEQLHMAARAVLEDAQRDEHLHNVPCNMEKQPGRIYHLYQKQGSMNKYFSMLAPNEWGYQEKKEEYLGSYRLEYDRSWTPVGEMDRKDEEVARLQQLLQREGPVALRGNPNF”, the “soluble on expression in E. coli” value was “not soluble”.
With “MASEIHMTGPMCLIENTNGRLMANPEALKILSAITQPMVVVAIVGLYRTGKSYLMNKLAGKKKGFSLGSTVQSHTKGIWMWCVPHPKKPGHILVLLDTEGLGDVEKGDNQNDSWIFALAVLLSSTFVYNSIGTINQQAMDQLYYVTELTHRIRSKSSPDENENEVEDSADFVSFFPDFVWTLRDFSLDLEADGQPLTPDEYLTYSLKLKKGTSQKDETFNLPRLCIRKFFPKKKCFVFDRPVHRRKLAQLEKLQDEELDPEFVQQVADFCSYIFSNSKTKTLSGGIQVNGPRLESLVLTYVNAISSGDLPCMENAVLALAQIENSAAVQKAIAHYEQQMGQKVQLPTESLQELLDLHRDSEREAIEVFIRSSFKDVDHLFQKELAAQLEKKRDDFCKQNQEASSDRCSGLLQVIFSPLEEEVKAGIYSKPGGYRLFVQKLQDLKKKYYEEPRKGIQAEEILQTYLKSKESMTDAILQTDQTLTEKEKEIEVERVKAESAQASAKMLHEMQRKNEQMMEQKERSYQEHLKQLTEKMENDRVQLLKEQERTLALKLQEQEQLLKEGFQKESRIMKNEIQDLQTKMRRRKACTIS” the “soluble on expression in E. coli” value was “soluble”.
In the case of “MASEKPLAAVTCTAPVNIAVIKYWGKRDEELVLPINSSLSVTLHQDQLKTTTTAVISKDFTEDRIWLNGREEDVGQPRLQACLREIRCLARKRRNSRDGDPLPSSLSCKVHVASVNNFPTAAGLASSAAGYACLAYTLARVYGVESDLSEVARRGSGSACRSLYGGFVEWQMGEQADGKDSIARQVAPESHWPELRVLILVVSAEKKLTGSTVGMRASVETSPLLRFRAESVVPARMAEMARCIRERDFPSFAQLTMKDSNQFHATCLDTFPPISYLNAISWRIIHLVHRFNAHHGDTKVAYTFDAGPNAVIFTLDDTVAEFVAAVWHGFPPGSNGDTFLKGLQVRPAPLSAELQAALAMEPTPGGVKYIIVTQVGPGPQILDDPCAHLLGPDGLPKPAA”, the “soluble on expression in E. coli” value is reported as “soluble”.
For “MASGDFRLCDVVLDDSIGRSTPDVEHERAVAIFDLIEENTFEPAGHDGGPYRLHISLVDAKLVFAIKTEDDKDVSTHILSLTPFRRIIKDYFLICESYYEAIRSSTPSQIEAIDMGRRGIHNDGSQTLMDRLSGKIKVDFDTARRLFTLVCVLYWRG”, the “soluble on expression in E. coli” value was “not soluble”.
With “MASKEAHVSLARGEQSVKRIKEFDPGKDSFSVLLLGIDAREKNGETVDQARSDANVLVTFNRKEKTAKMLSIPRDAYVNIPGHGYDKFTHAHAYGGVDLTVKTVEEMLDIPVDYVVESNFTAFEDVVNELNGVKVTVKSDKVIQQIKKDTKGKVVLQKGTHTLDGEEALAYVRTRKADSDLLRGQRQMEVLSAIIDKSKSLSSIPAYDDIVDTMGQNLKMNLSLKDAIGLFPFITSLKSVESIQLTGYDYEPAGVYYFKLNQQKLQEVKKELQNDLGVLEHHHHHH” the “soluble on expression in E. coli” value was “soluble”.
For “MASKLLQLKSKACEASKFVSKHGTTYYKQLLDKNKMYIQEPATIEKCNELSKQLLYTRLASIPGRSESFWKEVNHVKGLWKNRADLKVEDAGIAALFGLECFAWYCAGEIVGRGFTFTGYYP”, the “soluble on expression in E. coli” value was “not soluble”.
For “MASKTIIVMSDSHGDRDIVQAIKDKYLGQVDAIFHNGDSELNSSDPIWAGIYVVGGNCDYDTGYPDRLVTQLGTVTIAQTHGHLYHINFTWDKLDYFAQEVVADICLYGHLHRPAAWQVGQTLFMNPGSVTQPRGEINEKLYARVELTDTQIKVDYFTRDHKLYPSLSKEFKR”, the “soluble on expression in E. coli” value was “not soluble”.
In the case of “MASLEVSRSPRRSRRELEVRSPRQNKYSVLLPTYNERENLPLIVWLLVKSFSESGINYEIIIIDDGSPDGTRDVAEQLEKIYGSDRILLRPREKKLGLGTAYIHGMKHATGNYIIIMDADLSHHPKFIPEFIRKQKEGNFDIVSGTRYKGNGGVYGWDLKRKIISRGANFLTQILLRPGASDLTGSFRLYRKEVLEKLIEKCVSKGYVFQMEMIVRARQLNYTIGEVPISFVDRVYGESKLGGNEIVSFLKGLLTLFATT”, the “soluble on expression in E. coli” value is reported as “not soluble”.
In the case of “MASLSQTPPDLPLCRGDRVRMSPLGRERHPRYGTREGVIVGQGSPSSWRVKFDDRKTIQAIHQDYLERVPAQAARFDSSEIWNGWRNDPPATA”, the “soluble on expression in E. coli” value is reported as “not soluble”.
For “MASTFNPRECKLSKQEGQNYGFFLRIEKDTDGHLIRVIEEGSPAEKAGLLDGDRVLRINGVFVDKEEHAQVVELVRKSGNSVTLLVLDGDSYEKAVKNQVDLKELDQSQREAALNDKKPGPGMNGAVEPCAQPRLCYLVKEGNSFGFSLKTIQGKKGVYLTNIMPQGVAMKAGVLADDHLIEVNGENVENASHEEVVEKVTKSGSRIMFLLVDKETARCHSEQKTQFKRETASLKLLPHQPRVVVIKKGSNGYGFYLRAGPEQKGQIIKDIEPGSPAEAAGLKNNDLVVAVNGKSVEALDHDGVVEMIRKGGDQTTLLVLDKEAESIYSLARFSPLLYCQSQELPNGSVKEGPAPIPAPLEATGSEPTEDAEGHKPKLCRLLKEDDSYGFHLNAIRGQPGSFVKEVQQGGPADKAGLENEDVIIEVNGENVQEEPYDRVVERIKSSGKHVTLLVCGKMAYSYFQAKKIPIVSSMAEPLVAGPDEKGETSAESEHDAHPAKDRTLSTASHSSSNSEDTEM”, the “soluble on expression in E. coli” value was “soluble”.
With “MASTIAFPAMVKELRLSKNLTMEQLAEEVGKTKSTISKWEKGTRSPKIYEIEEIAKFFGVEPKKMMFGDNPTPTAPQVELIPSTLQKINSTSSQLEHKRQLNVLDYAETQLEQQNTVEEPQATYYTYNYYDHAASAGTGQYLNDVQVETIELPVDYDADFVIPVYGDSMEPKYHSGDYVFVKLSVELTDGDIGVFEYYGDAYIKQLLINDKGAFLHSLNQCGDYPDIPIDRDSDFRIIGEVMGSYRER” the “soluble on expression in E. coli” value was “not soluble”.
For “MASVALALWERVLANVVPRQSIAVIGAGVSGLSAAWLLSHRHDVTLYEADNRLGGHANTIIAEGVAVDTGFIVYNEPNYPNLTALFRHIGVETTETDMSFGVSLDGGALEYSSTKLLAQKRNVANPRFIKMLLDVVRFYREGRNIPADLEQGGLCRLDDYLRRQGFGRAFQEDHLLPQAAAIWSASMRDIREFPAAALLRFFDNHGLMLPIDKRPIWRTVVGGSARYVEKLAAGVSGPILTGRPVKAIHRGPDGVRIEDATGETRAFDHVVIGAHADQALSMLAAPSAEERELLGAFRYSRNRAVLHSDPALMPRRRGAWASWNHVGRRGEDGEGGVTYWMNILQPLGVERPYFLSLNPMQDPAGLMHDQVYEHPLFDGPAMLAQRRLWSLQGRRRTWFCGAYFGSGFHEDGLQAGLAVAEQLGGVRRPWLVPNPSGRIVLDVADQAADRELVALEHHHHHH”, the “soluble on expression in E. coli” value was “not soluble”.
In the case of “MASVHGITVKNAQGEDTPLSNYQGKVLIIVNVASQCGLTNSNYNQFKELLDVYKKDGLEVLAFPCNQFGGQEPSCEIDIAAFVADKFKFEPTLFQKIDVNGDNTAPLYKFLKQEKGGFLVDAIKWNFTKFLVGRDGHVIKRFSPTTEPKDMKKDIEAALQAKL”, the “soluble on expression in E. coli” value is reported as “not soluble”.
